{"source": "paper PMC8600086", "target": "recombinant MH8SR-tagged PfKelch13^337-726 (Plasmodium falciparum)", "test": "SEC", "note": "Where “and” joins values, the source holds several entries; their conditions need not be identical. Equal values may be shown once.", "data": [{"substance": "recombinant MH8SR-tagged PfKelch13^337-726 (domain or fragment)", "values": [{"measurement": "stoichiometry N", "value": "2 and 4"}]}]}
